Reference: article PMC6395645

What was measured:
soluble type-I collagen [1] = biological target: soluble type-I collagen (UniProt P02454); assay: ELISA; collagen-binding ELISA; soluble type-I collagen immobilised on plates, salivary gland homogenates of 20 WT mosquitoes applied 1 h at room temperature; quantified against Trx-AAPPex1-4
soluble type-I collagen [2] = biological target: soluble type-I collagen (UniProt P02454); assay: ELISA; collagen-binding ELISA; soluble type-I collagen immobilised on plates (7.5 ug/ml, 100 ul/well), saliva of 20 WT mosquitoes applied 1 h at room temperature; quantified against Trx-AAPPex1-4
soluble type-I collagen [3] = biological target: soluble type-I collagen (UniProt P02454); assay: ELISA; collagen-binding ELISA; soluble type-I collagen immobilised on plates, saliva of 20 TG mosquitoes (holds mDsRed-8H7scFv) applied 1 h at room temperature; quantified against Trx-AAPPex1-4
soluble type-I collagen [4] = biological target: soluble type-I collagen (UniProt P02454); assay: ELISA; collagen-binding ELISA; soluble type-I collagen immobilised on plates, salivary gland homogenates of 20 TG mosquitoes (hold mDsRed-8H7scFv) applied 1 h at room temperature; quantified against Trx-AAPPex1-4

soluble type-I collagen, sequence (P02454 152-1207, chain 1 of 2): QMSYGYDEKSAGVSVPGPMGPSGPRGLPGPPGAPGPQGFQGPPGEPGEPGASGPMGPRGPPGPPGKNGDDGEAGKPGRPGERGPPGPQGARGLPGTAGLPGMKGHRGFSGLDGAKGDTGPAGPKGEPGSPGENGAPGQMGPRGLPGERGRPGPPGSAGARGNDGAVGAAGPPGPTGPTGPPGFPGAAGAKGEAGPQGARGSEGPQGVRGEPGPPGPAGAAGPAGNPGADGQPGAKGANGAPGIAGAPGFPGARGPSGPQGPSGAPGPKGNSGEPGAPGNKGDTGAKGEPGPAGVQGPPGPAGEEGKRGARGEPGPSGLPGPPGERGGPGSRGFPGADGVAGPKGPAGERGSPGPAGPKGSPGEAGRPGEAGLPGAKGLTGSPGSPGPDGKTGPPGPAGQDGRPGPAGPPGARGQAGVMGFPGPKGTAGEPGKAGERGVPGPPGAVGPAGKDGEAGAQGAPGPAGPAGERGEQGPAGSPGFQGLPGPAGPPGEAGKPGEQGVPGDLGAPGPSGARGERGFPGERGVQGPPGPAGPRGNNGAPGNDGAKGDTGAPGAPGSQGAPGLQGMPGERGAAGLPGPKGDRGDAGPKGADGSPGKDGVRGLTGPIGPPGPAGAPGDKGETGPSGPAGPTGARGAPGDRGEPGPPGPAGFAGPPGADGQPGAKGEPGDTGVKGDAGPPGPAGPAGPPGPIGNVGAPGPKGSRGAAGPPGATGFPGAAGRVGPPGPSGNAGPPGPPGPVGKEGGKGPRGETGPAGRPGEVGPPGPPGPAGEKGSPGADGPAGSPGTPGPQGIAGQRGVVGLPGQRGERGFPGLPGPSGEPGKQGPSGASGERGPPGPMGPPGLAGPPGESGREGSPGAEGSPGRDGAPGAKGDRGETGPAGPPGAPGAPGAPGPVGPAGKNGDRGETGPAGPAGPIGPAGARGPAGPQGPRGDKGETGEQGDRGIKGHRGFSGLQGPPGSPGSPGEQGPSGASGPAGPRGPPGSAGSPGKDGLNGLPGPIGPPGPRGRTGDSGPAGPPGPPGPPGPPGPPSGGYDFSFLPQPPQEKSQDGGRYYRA
soluble type-I collagen, sequence (P02466 86-1125, chain 2 of 2, further chain): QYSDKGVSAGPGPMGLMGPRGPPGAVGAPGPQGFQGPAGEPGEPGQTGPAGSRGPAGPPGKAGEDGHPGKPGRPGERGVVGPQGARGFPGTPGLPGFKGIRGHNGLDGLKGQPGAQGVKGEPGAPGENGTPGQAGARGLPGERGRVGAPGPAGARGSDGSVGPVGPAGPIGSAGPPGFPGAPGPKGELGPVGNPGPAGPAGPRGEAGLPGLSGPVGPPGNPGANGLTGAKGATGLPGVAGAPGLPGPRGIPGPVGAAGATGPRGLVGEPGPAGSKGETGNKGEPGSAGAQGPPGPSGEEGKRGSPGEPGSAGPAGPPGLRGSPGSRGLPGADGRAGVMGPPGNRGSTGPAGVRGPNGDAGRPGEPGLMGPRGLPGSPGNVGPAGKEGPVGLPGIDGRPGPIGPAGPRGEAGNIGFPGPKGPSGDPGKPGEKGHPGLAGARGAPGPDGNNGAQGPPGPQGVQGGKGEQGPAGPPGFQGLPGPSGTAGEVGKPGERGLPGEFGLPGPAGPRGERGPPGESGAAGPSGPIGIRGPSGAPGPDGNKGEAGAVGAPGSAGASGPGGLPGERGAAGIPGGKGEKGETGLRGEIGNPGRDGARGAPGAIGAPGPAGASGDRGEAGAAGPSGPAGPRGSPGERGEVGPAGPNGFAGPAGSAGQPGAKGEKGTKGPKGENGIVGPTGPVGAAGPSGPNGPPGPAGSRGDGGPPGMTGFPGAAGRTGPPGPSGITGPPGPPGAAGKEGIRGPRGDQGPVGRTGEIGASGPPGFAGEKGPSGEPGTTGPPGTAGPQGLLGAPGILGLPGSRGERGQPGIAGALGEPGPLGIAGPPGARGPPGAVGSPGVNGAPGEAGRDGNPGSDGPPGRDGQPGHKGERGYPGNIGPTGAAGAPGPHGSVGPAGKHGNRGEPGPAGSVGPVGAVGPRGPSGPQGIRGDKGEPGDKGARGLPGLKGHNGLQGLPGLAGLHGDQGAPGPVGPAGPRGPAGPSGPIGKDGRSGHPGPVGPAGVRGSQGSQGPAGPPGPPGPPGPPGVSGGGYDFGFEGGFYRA

## Anopheline antiplatelet protein (AAPP) (from UniProt Q7YT37 20-269) (natural protein)
Soluble type-I collagen [1]
  amount of AAPP capable of binding to collagen (salivary glands of 20 WT mosquitoes): 233 ng
Soluble type-I collagen [2]
  amount of AAPP capable of binding to collagen (saliva of 20 WT mosquitoes): 28.4 ng
Soluble type-I collagen [3]
  amount of AAPP capable of binding to collagen, with mDsRed-8H7scFv present (saliva of 20 mosquitoes of each TG line): < 0.069 ng
Soluble type-I collagen [4]
  amount of AAPP capable of binding to collagen, with mDsRed-8H7scFv present (salivary glands of 20 TG-03 mosquitoes): 11.4 ng
  amount of AAPP capable of binding to collagen, with mDsRed-8H7scFv present (salivary glands of 20 TG-30 mosquitoes): 9.95 ng
  amount of AAPP capable of binding to collagen, with mDsRed-8H7scFv present (salivary glands of 20 TG-37 mosquitoes): 10.5 ng
